This is an account of results in US20240092941A1 (FRED HUTCHINSON CANCER CENTER, published 2024).

What is called Kd is the constant that tells how readily two partners part at equilibrium.

This assay concerns the target T1, soluble ROR1 ectodomain (UniProt Q01973 30-406, limits assumed).
T1 construct: extracellular domain
Nature of the assay: method not stated in the legend of FIG. 1.

T1 sequence (Q01973 30-406 limits assumed): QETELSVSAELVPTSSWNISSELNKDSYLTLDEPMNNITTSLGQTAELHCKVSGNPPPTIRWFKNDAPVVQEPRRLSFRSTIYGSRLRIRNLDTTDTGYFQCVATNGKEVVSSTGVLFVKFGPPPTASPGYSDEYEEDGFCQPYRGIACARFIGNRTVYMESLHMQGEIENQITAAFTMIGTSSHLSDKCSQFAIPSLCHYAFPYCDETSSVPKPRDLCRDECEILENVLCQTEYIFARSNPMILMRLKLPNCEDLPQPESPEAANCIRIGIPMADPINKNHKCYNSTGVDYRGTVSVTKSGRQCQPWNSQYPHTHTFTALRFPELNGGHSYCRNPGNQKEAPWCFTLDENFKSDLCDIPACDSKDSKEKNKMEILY

B1: Nb11 WT (VHH)
VHH: QVKLVQSGGGLVQAGGSLRLSCAASGSIFSSASMGWYRQAPGKPREQVASITRDGNTYYEDDVKGRFTISRDNARSTGYLQMNSLTPEDTGVYYCNVYQLGFYDKWGQGTQVIVSS
As to B1, the Kd came to 2 nM. This lies in the single-digit nanomolar range.

B2: Nb14 WT (VHH)
VHH: QVKLVQSGGGLVQTGGSLRLSCAASEITFDMYSMGWYREAPGKARDAVASITNRGNTYYADSVKGRFTISRDNAKKTMYLQMNSLKPEDTAVYYCNVYRTGFSDYWGQGTQVTVSS
Regarding B2, binding was put at a Kd of 2 nM.
